The text below walks through data of patent US20210355194A1 (TWIST BIOSCIENCE, published 2021).

For experiment [1], the target named is SARS-CoV-2 spike on live SARS-CoV-2 virus (SARS-CoV-2, UniProt P0DTC2 14-1273). The experiment in a line: cell-based or functional assay.
Experiment [2] addresses T1, Acro SARS-CoV-2 (COVID-19) S1 protein (SARS-CoV-2, UniProt P0DTC2 16-685).
T1 construct: also called SARS-CoV-2 S1
As to the kind of experiment: SPR. On the technique in general: Surface plasmon resonance follows binding to a sensor surface in real time, without labels.

For experiment [3], the target named is SARS-CoV-2 membrane protein on expressing cells (SARS-CoV-2, UniProt P0DTC5 1-222).
Experiment [4] concerns the target T2, COVID S1 RBM Fc fusion (Antigen 2) (SARS-CoV-2, UniProt P0DTC2 437-508).
T2 construct: domain: S1 RBM
The experiment in a line: phage ELISA. In general terms: In an ELISA, binding on a coated surface is turned into a signal by an enzyme label.

For experiment [5], the target named is T3, COVID S1 RBD Fc fusion (Antigen 1) (SARS-CoV-2, UniProt P0DTC2 319-541).
T3 construct: domain: S1 RBD
As to the kind of experiment: phage ELISA.

As usually defined, the EC80 is the point of the concentration-response curve where the effect stands at 80%. The low end stands for greater potency, the high end for weaker potency. Usually Kd stands for the free concentration of one partner at which half of the binding sites on the other are occupied at equilibrium, for simple one-to-one binding. High values mean lower affinity, low ones higher affinity.

B1: variant 6-42 (Fc fusion)
VHH: EVQLVESGGGLVQPGGSLRLSCAASGDTYGSYWMGWFRQAPGKEREFVAVITSGGSTNYADSVKGRFTISADNSKNTAYLQMNSLKPEDTAVYYCTHVQNSYYYAMDVWGQGTLVTVSS
As for B1, the “EC80” value in experiment [1] was found to be 0.734 µg/mL. The molecule also came in with a Kd in experiment [2] of 10.1 nM.

B2: 10-6 (VHH)
VHH: EVQLVESGGGLVQPGGSLRLSCAASGTTLTFRIMGWFRQAPGKEREFVPAISSTGLASYTDSVKGRFTISADNSKNTAYLQMNSLKPEDTAVYYCSKDRAPNCFACCPNGFDVWGQGTLVTVSS
Take B2: the “MFI Ratio” value in experiment [3] turned out to be 1.08.

B3: variant 2-1 (antibody, V domains shown)
VH: EVQLLESGGGLVQPGGSLRLSCAASGFTFSNYATDWVRQAPGKGLEWVSIISGSGGATYYADSVKGRFTISRDNSKNTLYLQMNSLRAEDTAVYYCAKGGYCSSDTCWWEYWLDPWGQGTLVTVSS
VL: DIQMTQSPSSLSASVGDRVTITCRASQSIHRFLNWYQQKPGKAPKLLIYAASNLHSGVPSRFSGSGSGTDFTLTISSLQPEDFATYYCQQSYGLPPTFGQGTKVEIK
B3: in experiment [4], the “specificity ELISA, fold over background” value worked out at 1.5 fold over background and the “specificity ELISA, percent binding relative to Acro S1” value stood at 3.9%. In experiment [5], the “specificity ELISA, fold over background” value amounted to 36.8 fold over background and the “specificity ELISA, percent binding relative to Acro S1” value is 93.7%.

B4: variant 6-24 (Fc fusion)
VHH: EVQLVESGGGLVQPGGSLRLSCAASGFTLDYYAMGWFRQAPGKEREFVAAINWSGDNTHYADSVKGRFTISADNSKNTAYLQMNSLKPEDTAVYYCARAPFYCTTTKCQDNYYYMDVWGQGTLVTVSS
For the molecule B4, it took 31.4 µg/mL to reach the 80% level in experiment [1] (EC80). The same molecule returned a Kd in experiment [2] of 29.9 nM.

B5: variant 6-32 (Fc fusion)
VHH: EVQLVESGGGLVQPGGSLRLSCAASGFTLDYYDMGWFRQAPGKEREFVALISWSGGSTYYADSVKGRFTISADNSKNTAYLQMNSLKPEDTAVYYCATDFYGWGTRERDAFDIWGQGTLVTVSS
Turning to B5, in experiment [1], the 80% effect level (EC80) was put at 60.6 µg/mL. Besides, the Kd in experiment [2] stood at 27.2 nM.

B6: 10-60 (VHH)
VHH: EVQLVESGGGLVQPGGSLRLSCAASGIPASMYLGWFRQAPGKEREFVAAITSGGRTSYADSVKGRFTISADNSKNTAYLQMNSLKPEDTAVYYCAKRKKRGPLWFGGGGWGYWGQGTLVTVSS
For B6, the “MFI Ratio” value in experiment [3] was 1.14.

B7: variant 6-6 (Fc fusion)
VHH: EVQLVESGGGLVQPGGSLRLSCAASGTTLDYYAMGWFRQAPGKERELVAAISWSGGSTAYADSVKGRFTISADNSKNTAYLQMNSLKPEDTAVYYCAREDYYDSSGYSWGQGTLVTVSS
On to B7, for which the “EC80” value in experiment [1] is 24.4 µg/mL. Further, the Kd in experiment [2] is 6.4 nM.

B8: variant 5-51 (Fc fusion)
VHH: EVQLVESGGGLVQPGGSLRLSCAASGRPNSINWMGWFRQAPGKERQFVATITPGGNTNYADSVKGRFTISADNSKNTAYLLMNSLKPEDTAVYYCAAAAGTTWYGTLYEYDWGQGTLVTVSS
With B8, the “EC80” value in experiment [1] was 388 µg/mL. Moreover, the Kd in experiment [2] was 25.5 nM.

B9: 10-1 (VHH)
VHH: EVQLVESGGGLVQPGGSLRLSCAASGLSSPPFDDFPMGWFRQAPGKEREFVSSIYSDDGDSMYADSVKGRFTISADNSKNTAYLQMNSLKPEDTAVYYCARQTFDFWSASLGGNFWYFDLWGQGTLVTVSS
For B9, the “MFI Ratio” value in experiment [3] was found to be 1.08.

B10: variant 5-8 (Fc fusion)
VHH: EVQLVESGGGLVQPGGSLRLSCAASGRPFSEYTMGWFRQAPGKEREFVSSIHWGGRGTNYADSVKGRFTISADNSKNTAYLQMNSLKPEDTAVYYCAAELHSSDYTSPGAYAWGQGTLVTVSS
With B10, the “EC80” value in experiment [1] turned out to be 15.8 µg/mL.

B11: variant 5-38 (Fc fusion)
VHH: EVQLVESGGGLVQPGGSLRLSCAASGRTFSMHAMGWFRQAPGKERELVASISSQGRTNYADSVKGRFTISADNSKNTAYLQMNSLKPEDTAVYYCAAEVRNGSDYLPIDWGQGTLVTVSS
Regarding B11, the 80% effect level in experiment [1] (EC80) was put at 1.5 µg/mL.

B12: variant 6-91 (Fc fusion)
VHH: EVQLVESGGGLVQPGGSLRLSCAASGRTFGNYAMGWFRQAPGKEREFVASISSSGVSKHYADSVKGRFTISADNSKNTAYLQMNSLKPEDTAVYYCVRFGSSWARDLDQWGQGTLVTVSS
As for B12, the “EC80” value in experiment [1] was found to be 240 µg/mL.

B13: variant 3-10 (antibody, V domains shown)
VH: EVQLLESGGGLVQPGGSLRLSCAASGFTFRSHAMSWVRQAPGKGLEWVSSISGGGASTYYADSVKGRFTISRDNSKNTLYLQMNSLRAEDTAVYYCARVKYLTTSSGWPRPYFDNWGQGTLVTVSS
VL: DIQMTQSPSSLSASVGDRVTITCRASQSIRKYLNWYQQKPGKAPKLLIYASSTLQRGVPSRFSGSGSGTDFTLTISSLQPEDFATYYCQQSLSTPFTFGGGTKVEIK
As for B13, in experiment [4], the “specificity ELISA, fold over background” value amounted to 1.1 fold over background and the “specificity ELISA, percent binding relative to Acro S1” value is 93.3%. In experiment [5], the “specificity ELISA, fold over background” value stood at 1.2 fold over background and the “specificity ELISA, percent binding relative to Acro S1” value came out at 97.2%.

B14: variant 6-22 (Fc fusion)
VHH: EVQLVESGGGLVQPGGSLRLSCAASGRTFSEVVMGWFRQAPGKEREFVATIHSSGSTSYADSVKGRFTISADNSKNTAYLQMNSLKPEDTAVYYCVRVTSDYSMDSWGQGTLVTVSS
B14: the “EC80” value in experiment [1] is 103 µg/mL. The molecule also came in with a Kd in experiment [2] of 25.6 nM.

B15: variant 5-63 (Fc fusion)
VHH: EVQLVESGGGLVQPGGSLRLSCAASGFSLDYYDMGWFRQAPGKEREFVAALGWSGGSTDYADSVKGRFTISADNSKNTAYLQMNSLKPEDTAVYYCAAGNGGRYGIVERWGQGTLVTVSS
As for B15, in experiment [1], the “EC80” value was 14.2 µg/mL. In addition, in experiment [2], the Kd came to 10.5 nM.

B16: 10-2 (VHH)
VHH: EVQLVESGGGLVQPGGSLRLSCAASGGTFSSYSMGWFRQAPGKEREFVSAISWIIGSGGTTNYADSVKGRFTISADNSKNTAYLQMNSLKPEDTAVYYCTAGAGDSWGQGTLVTVSS
Turning to B16, the “MFI Ratio” value in experiment [3] turned out to be 1.25.

B17: variant 6-13 (Fc fusion)
VHH: EVQLVESGGGLVQPGGSLRLSCAASGLTFNDYAMGWFRQAPGKEREFVAHIPRSTYSPYYADSVKGRFTISADNSKNTAYLQMNSLKPEDTAVYYCAFLVGPQGVDHGAFDVWGQGTLVTVSS
Regarding B17, in experiment [1], the “EC80” value was 25.7 µg/mL. In experiment [2], this molecule yielded a Kd of 25.3 nM.

B18: variant 5-32 (Fc fusion)
VHH: EVQLVESGGGLVQPGGSLRLSCAASGFTPDNYAMGWFRQAPGKEREFVAALGWSGVTTYHYYADSVKGRFTISADNSKNTAYLQMNSLKPEDTAVYYCASDESDAANWGQGTLVTVSS
Take B18: the “EC80” value in experiment [1] is 180 µg/mL. The molecule also returned a Kd in experiment [2] of 22.4 nM.

B19: 9-2 (VHH)
VHH: EVQLVESGGGLVQPGGSLRLSCAASGSFSIAAMGWFRQAPGKEREFVATINYSGGGTYYADSVKGRFTISADNSKNTAYLQMNSLKPEDTAVYYCAAVNTFDESAYAAFACYDVVWGQGTLVTVSS
In the case of B19, the “MFI Ratio” value in experiment [3] came to 1.3.

B20: variant 6-82 (Fc fusion)
VHH: EVQLVESGGGLVQPGGSLRLSCAASGSSLDAYGMGWFRQAPGKEREFVAAISWGGGSIYYADSVKGRFTISADNSKNTAYLQMNSLKPEDTAVYYCARLSQGMVALDYWGQGTLVTVSS
Consider B20, for which it took 108 µg/mL to reach the 80% level in experiment [1] (EC80). Also, in experiment [2], the Kd worked out at 7.1 nM.
